The assay concerns the target heat shock protein 60 (HSP60) (human (endogenous in HEK293T)), P10809. Put plainly: negative-stain EM, single-particle analysis; SEC fraction 4 (1.5 to 2 MDa) of HEK293T lysate, Superdex 200 in PBS pH 7.2 at 4°C; 2% uranyl acetate; raw micrographs, reference-free 2D class averages, 3D classification (RELION) and ab initio reconstruction (cryoSPARC); proteins identified by mass spectrometry of the fraction. Particulars: remark: other sources report otherwise.

B1: heat shock protein 60 (HSP60), P10809 27-573 (natural protein)
chain: AKDVKFGADARALMLQGVDLLADAVAVTMGPKGRTVIIEQSWGSPKVTKDGVTVAKSIDLKDKYKNIGAKLVQDVANNTNEEAGDGTTTATVLARSIAKEGFEKISKGANPVEIRRGVMLAVDAVIAELKKQSKPVTTPEEIAQVATISANGDKEIGNIISDAMKKVGRKGVITVKDGKTLNDELEIIEGMKFDRGYISPYFINTSKGQKCEFQDAYVLLSEKKISSIQSIVPALEIANAHRKPLVIIAEDVDGEALSTLVLNRLKVGLQVVAVKAPGFGDNRKNQLKDMAIATGGAVFGEEGLTLNLEDVQPHDLGKVGEVIVTKDDAMLLKGKGDKAQIEKRIQEIIEQLDVTTSEYEKEKLNERLAKLSDGVAVLKVGGTSDVEVNEKKDRVTDALNATRAAVEEGIVLGGGCALLRCIPALDSLTPANEDQKIGIEIIKRTLKIPAMTIAKNAGVEGSLIVEKIMQSSSEVGYDAMAGDFVNMVEKGIIDPTKVVRTALLDAAGVASLLTTAEVVVTEIPKEEKDPGMGAMGGMGGGMGGGMF
In general, stoichiometry N refers to the number of molecules, sites or subunits per partner or assembly. Consider B1, for which the stoichiometry N came to 7.

Source of the values: publication PMC6109231.
